Source: patent US20180222975A1 (ELEVEN BIOTHERAPEUTICS, published 2018)
Changes are numbered by the printed parent chain.

Experiments:
human IL-6 [1] = molecular target: T1, human IL-6 (human, UniProt P05231 30-212); test: ELISA, hybridoma supernatant on plates coated with human IL-6
T1 construct: also called IL-6 (R&D Systems, cat# 206-IL/CF); biotinylated human IL-6
Protocol: Hybridoma supernatants were screened for IL-6 binding and antagonism. For the binding ELISA, Costar 9018 plates were coated with 1 μg/mL human IL-6 in PBS overnight at 4° C. Wells were blocked with PBS containing 2% BSA, washed, and then incubated with 50 μL of each hybridoma supernatant diluted 1:2 with PBS containing 2% BSA. After 60 minutes, wells were washed three times with 300 μl PBS containing 0.1% Tween-20. Anti-mouse-HRP diluted 1:3000 in PBS-BSA was then added to each well and incubated for 30 minutes. Wells were washed as above then 3,3′,5,5′-tetramethylbenzidine (TMB) substrate was added and the signal measured at 450 and 550 nm. For antagonism studies, HEK-Blue™-IL6 reporter cells (InvivoGen. San Diego, Calif.) were incubated with increasing concentrations of human IL-6 in the presence of 1:10 diluted hybridoma supernatant. After 20-24 hours, 20 μl of supernatant was mixed with 180 μl QuantiBlue™ (InvivoGen) and the absorbance measured at 655 nm.

human IL-6 [2] = molecular target: T1, human IL-6; test: ELISA, blocking of IL-6/IL-6Rα complex binding to gp130
dog IL-6 = molecular target: T2, dog IL-6 (dog, UniProt P41323 21-207, limits assumed); test: monovalent affinity
T2 construct: also called canine IL-6
T2 sequence (looked up): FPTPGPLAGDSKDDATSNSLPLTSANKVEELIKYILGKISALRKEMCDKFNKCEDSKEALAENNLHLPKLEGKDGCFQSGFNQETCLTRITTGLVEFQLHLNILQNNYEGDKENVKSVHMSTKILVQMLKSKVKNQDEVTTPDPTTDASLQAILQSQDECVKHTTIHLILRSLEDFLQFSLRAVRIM

rat IL-6 = molecular target: T3, rat IL-6 (rat, UniProt P20607 25-211); test: monovalent affinity
T3 construct: also called rodent IL-6
T3 sequence (looked up): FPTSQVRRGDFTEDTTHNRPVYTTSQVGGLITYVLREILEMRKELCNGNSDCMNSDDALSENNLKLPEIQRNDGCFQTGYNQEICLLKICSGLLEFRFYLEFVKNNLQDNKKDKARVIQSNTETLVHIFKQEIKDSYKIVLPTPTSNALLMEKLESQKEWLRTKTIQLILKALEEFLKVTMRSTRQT

mouse IL-6 = molecular target: T4, mouse IL-6 (mouse, UniProt P08505 25-211); test: monovalent affinity
T4 construct: also called rodent IL-6
T4 sequence (looked up): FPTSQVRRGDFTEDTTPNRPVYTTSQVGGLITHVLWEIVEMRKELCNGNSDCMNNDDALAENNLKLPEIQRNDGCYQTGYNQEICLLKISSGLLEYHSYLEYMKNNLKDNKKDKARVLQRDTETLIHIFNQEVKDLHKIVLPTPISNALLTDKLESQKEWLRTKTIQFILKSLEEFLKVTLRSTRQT

rabbit IL-6 = molecular target: T5, rabbit IL-6 (rabbit, UniProt Q9MZR1 27-241, limits assumed); test: monovalent affinity
T5 sequence (looked up): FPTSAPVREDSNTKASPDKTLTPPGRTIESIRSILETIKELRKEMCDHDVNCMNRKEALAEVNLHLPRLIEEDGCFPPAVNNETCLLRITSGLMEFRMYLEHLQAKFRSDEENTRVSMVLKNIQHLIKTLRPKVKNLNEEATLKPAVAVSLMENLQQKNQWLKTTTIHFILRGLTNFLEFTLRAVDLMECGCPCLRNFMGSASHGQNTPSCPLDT

[3] = molecular target: African green monkey IL-6 (African green monkey); test: monovalent affinity
human IL-6 [4] = molecular target: T1, human IL-6; test: affinity tested using the yeast system; original humanized h64, before affinity maturation; yeast system

B1: murine 64 antibody (antibody, V domains shown)
VH: QVQLQQSGAELVRPGTSVKVSCKASGYAFSNYLIEWVKQRPGQGLEWIGVITPGSGTINYNEKFKGKAVLTADKSSSTVYMQLSSLTSDDSAVYFCAKSRWDPLYYYALEYWGQGTSVTVSS
VL: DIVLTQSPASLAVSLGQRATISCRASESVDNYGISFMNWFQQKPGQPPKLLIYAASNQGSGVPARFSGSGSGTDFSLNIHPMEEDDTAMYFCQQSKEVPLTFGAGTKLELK
notes: Murine monoclonal; also called hybridoma 64; m64
binding result (human IL-6 [1]): binds

B2: chimeric murine 64 antibody (antibody, V domains shown)
VH: B1 VH
VL: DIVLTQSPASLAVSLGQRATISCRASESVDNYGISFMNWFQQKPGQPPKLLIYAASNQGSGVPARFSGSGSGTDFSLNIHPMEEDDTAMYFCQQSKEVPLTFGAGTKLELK
notes: constant regions not described
binding result (human IL-6 [2]): binds

B3: 018 Fab (Fab, V domains shown)
VH: QVQLVQSGAEVKKPGSSVKVSCKASGYALSNYLIEWVRQAPGQGLEWMGVITPGSGTINYAQKFQGRVTITADESTSTAYMELSSLRSEDTAVYYCARSRWDPLYYYALEYWGQGTTVTVSS
VL: DIVMTQSPDSLAVSLGERATINCRASESVDNYGIPFMNWYQQKPGQPPKLLIYAASNRGSGVPDRFSGSGSGTDFTLTISSLQAEDVAVYYCQQSEEVPLTFGQGTKLEIKR
notes: Fab with CK and IgG1 CH1 domains; also called Fab fragment of the h64-1,4 humanized antibody
Kd (dog IL-6): > 1000 nM
Kd (rat IL-6): > 1000 nM
Kd (mouse IL-6): > 1000 nM
Kd (rabbit IL-6): > 1000 nM
Kd [3]: 0.28 nM

B4: h64 IgG (antibody, V domains shown)
VH: B3 VH with L29F
VL: DIVMTQSPDSLAVSLGERATINCRASESVDNYGISFMNWYQQKPGQPPKLLIYAASNQGSGVPDRFSGSGSGTDFTLTISSLQAEDVAVYYCQQSKEVPLTFGQGTKLEIK
notes: also called original h64 antibody; original humanized molecule
Kd (human IL-6 [4]): 0.343 nM
